US11319368B2, “Treatment of hepatotoxicity with IL-11 antibody” (Singapore Health Services PTE LTD., priority 2019, dated 2022)

Tests used:
active Crohn's disease = conditions: 1 mg, weekly for 12 weeks, SC; 51 patients; cited from earlier work
rheumatoid arthritis = conditions: up to 15 μg/kg weekly for 12 weeks (SC); cited from earlier work
[1] = system: Concanavalin A-induced T-cell-mediated hepatotoxicity; conditions: 50-500 μg/kg, IP 2 hours prior to Concanavalin A; cited from earlier work
[2] = system: chronic Hepatitis C and late stage liver disease; conditions: 5 μg/kg, daily for 12 weeks, SC; 20 patients; cited from earlier work
[3] = system: collagen-induced arthritis; conditions: 0.3-100 μg/mouse/day, IP, 10 days; cited from earlier work
ulcerative mucositis = conditions: 50-100 μg/animal/day, SC; cited from earlier work
[4] = system: murine primary macrophages; conditions: 10-100 ng/ml; cited from earlier work
[5] = system: LPS-induced hepatic injury (acute endotoxemia); conditions: 150 μg/kg, IP; cited from earlier work
[6] = system: early intestinal radiation injury; conditions: 2 mg/kg/d from 2 days prior until 2 weeks after irradiation; cited from earlier work
nephrotoxic nephritis = conditions: 800-1360 μg/kg, IP 2 hours prior, then once daily for 6 days; cited from earlier work
intestinal inflammation = conditions: mucosal sheets 10-10,000 ng/ml; rats 33 μg/kg alternate days 1 or 2 weeks; cited from earlier work
heart [7] = conditions: 8 μg/kg, IV 24 hours after ligation, then every 24 hours for 4 days; cited from earlier work
[8] = system: clonogenic cells in intestinal crypts; conditions: 100 μg/kg, SC prior to and after cytotoxic exposure; cited from earlier work
heart [9] = conditions: 20 μg/kg, IV at the start of reperfusion; cited from earlier work
[10] = system: epithelial cell integrity; conditions: oral 0.5 mg/kg/day, 12 days; cited from earlier work
AILI = assay: rhIL11 or rmIL11 injection in APAP OD mice; format: in vivo, mouse
Protocol: FIGS. 10A to 10L. […] (A, B, K, L) 24 h. […] FC: fold change

[11] = system: primary human hepatocytes; assay: IL11 effect on GSH and NOX4 in primary human hepatocytes; format: cell-based
hIL11Rα = biological target: T1, hIL11Rα (Homo sapiens, UniProt Q14626); conditions: rhIL11:hIL11Rα, reported previously, reconfirmed; cited from earlier work
T1 construct: purchased SinoBiological 10252-H08H
T1 sequence (Q14626 23-422): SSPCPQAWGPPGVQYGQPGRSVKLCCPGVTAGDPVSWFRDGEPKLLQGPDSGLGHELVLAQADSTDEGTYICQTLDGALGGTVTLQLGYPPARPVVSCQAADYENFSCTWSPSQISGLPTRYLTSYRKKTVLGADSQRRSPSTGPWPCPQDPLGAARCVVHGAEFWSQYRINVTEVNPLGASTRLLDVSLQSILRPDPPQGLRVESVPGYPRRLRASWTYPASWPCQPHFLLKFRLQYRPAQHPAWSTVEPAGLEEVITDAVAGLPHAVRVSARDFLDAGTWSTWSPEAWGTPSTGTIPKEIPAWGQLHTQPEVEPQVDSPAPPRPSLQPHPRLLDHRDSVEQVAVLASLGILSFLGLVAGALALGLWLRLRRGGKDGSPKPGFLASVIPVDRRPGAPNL

[12] = system: primary human hepatocytes; assay: IL11 stimulation of primary human hepatocytes: ERK, JNK, CASP3, PI staining; format: cell-based
Source text: PI^+ve cells were quantified with the flow cytometer (Fortessa, BD Biosciences) and analyzed with FlowJo version 7 software (TreeStar).

[13] = system: primary human hepatocytes; assay: IL11 stimulation of primary human hepatocytes with sgp130 or sIL11Rα; format: cell-based; conditions: IL11 0.625 ng/ml to 20 ng/ml
mouse livers = conditions: 500 μg/kg, IV prior to WI/Rp injury; cited from earlier work
[14] = system: activated murine CD4+ve T-cells; conditions: 1-500 ng/ml; cited from earlier work
kidney = conditions: 100-1000 μg/kg, IP; 10 minutes prior to or 30-60 minutes following IR; cited from earlier work
mouse hepatocytes = assay: rhIL11 versus rmIL11 on mouse hepatocytes; format: cell-based
Source text: Mouse hepatocytes (ABC-TC3928, AcceGen Biotech) were maintained in mouse hepatocyte medium (ABC-TM3928, AcceGen Biotech) supplemented with 1% Penicillin-streptomycin.

IL-11Rα = conditions: low affinity; cited from earlier work
GVHD = conditions: 250 μg/kg, SC, twice daily; cited from earlier work
IRI = conditions: 500 μg/kg, IP one hour prior to IRI; cited from earlier work
[15] = subcutaneous injection, APAP OD

B1: rhIL11: Recombinant human IL11 (UniProtKB:P20809, Genscript) (protein)
chain: PGPPPGPPRVSPDPRAELDSTVLLTRSLLADTRQLAAQLRDKFPADGDHNLDSLPTLAMSAGALGALQLPGVLTRLRADLLSYLRHVQWLRRAGGSSLKTLEPELGTLQARLDRLLRRLQLLMSRLALPQPPPDPPAPPLAPPSSAWGGIRAAHAILGGLHLTLDWAVRGLLLLKTRL
For B1, the “efficacy compared to prednisolone” value (active Crohn's disease) is listed as “inferior as compared to prednisolone treatment”, the “patients with mild adverse effect (erythema with/without induration) at the injection site” value (rheumatoid arthritis) is listed as “with/without induration) at the injection site was seen in 60.6% of” and the therapeutic benefit (rheumatoid arthritis) is listed as “no therapeutic benefit”. For the same molecule, the liver necrosis [1] was “Concanavalin A-induced T-cell-mediated hepatotoxicity reduces”, the survival [1] was “liver necrosis and enhanced survival in mice” and the “serum ALT by study end” value [2] was “Lower serum ALT was observed by study end. The most”. For the same molecule, the inflammation [3] was “days) reduces inflammation in a murine model of collagen-”, the 5-fluorouracil-induced ulcerative mucositis (ulcerative mucositis) was “Administration of rhIL11 (50-100 μg/animal/day, SC) protects” and the “secretion of pro-inflammatory cytokines by macrophages” value [4] was “The authors conclude that IL11 inhibits the secretion of pro-”. The LPS-induced hepatic injury [5] was “significant protective role in LPS-induced hepatic injury (acute”, the “early intestinal radiation injury” value [6] was “The authors conclude that IL11 ameliorates early intestinal” and the ECM deposition (nephrotoxic nephritis) was “nephrotoxic nephritis and then once daily for 6 days suppresses”. For the same molecule, the “epithelial transport and inflammation” value (intestinal inflammation) was “acts as a modulator of epithelial transport or as an anti-”, the post-MI scar volume (heart [7]) was “then consecutively every 24 hours for 4 days reduces post-MI” and the “clonogenic cells in intestinal crypts” value [8] was “cytotoxic exposure, protects clonogenic cells in intestinal crypts”. The “adverse cardiac remodeling and apoptosis” value (heart [9]) was “prevents adverse cardiac remodeling and apoptosis after”, the “epithelial cell integrity during cyclophosphamide chemotherapy” value [10] was “The authors suggest that IL11 maintains epithelial cell integrity” and the “hepatic ERK and JNK activation” value (AILI; 24 h following APAP administration) was “reduction in hepatic ERK and JNK activation”. The “hepatic GSH levels after APAP” value (AILI; APAP injury) was “restored APAP-induced GSH depletion”, the “reduction of serum ALT (severity of AILI)” value (AILI; [15]) was 52% and the “reduction of serum AST (severity of AILI)” value (AILI; [15]) was 39%. The GSH depletion ([11]; dose range and time course) was “stimulated dose-dependent GSH depletion”, the NOX4 expression ([11]; rhIL11 10 ng ml^-1) was “NOX4 upregulation” and the Kd (hIL11Rα) was 50 nM. For the same molecule, the “hepatocyte cell death, FACS (PI+ve cells)” value ([12]; 24 h) was “dose-dependent IL11-induced hepatocyte cell death”, the “ERK and JNK activation, concurrent with CASP3 cleavage” value ([12]; time course) was “late (>6 h) and sustained ERK and JNK activation” and the “hepatocyte cell death (ALT)” value [13] was “dose-dependently (0.625 ng/ml to 20 ng/ml) caused hepatocyte cell death”. The “protection from WI/Rp injury” value (mouse livers) was “injury protects mouse livers. In vitro, pre-treatment with rhIL11”, the “immune response of CD4+ve T-cells” value [14] was “CD4+ve T-cells and modulates, not represses, the immune” and the renoprotection (kidney) was “The authors conclude that IL11 is renoprotective based on pre-”. The “ERK and JNK phosphorylation, CASP3 cleavage” value (mouse hepatocytes; 10 ng ml^-1, 24 h) was “had no effect”, the “mouse hepatocyte cell death (ALT in supernatant)” value (mouse hepatocytes; 24 h) was “did not” and the Kd (IL-11Rα) was ~10 nM. For the same molecule, the Graft-vs-Host-Disease (GVHD) was “The authors conclude that IL11 prevents Graft-vs-Host-Disease” and the “hepatoprotection in IRI” value (IRI) was “Hepatoprotective effects of rhIL11 in mice subjected to a single”.
